Experimental data as given in publication PMC9582512 (2022).

Columns and labels:
[1] = target: IgG4 F127 pre-complexed with dimeric Fel d 1 (human | cat, UniProt P30438 23-92; P30440 18-109); assay: BLI; pre-complexed with Fel d 1
[2] = target: IgG1 F127 pre-complexed with dimeric Fel d 1 (human | cat, UniProt P30438 23-92; P30440 18-109); assay: BLI; pre-complexed with Fel d 1

koff [1]: 0.000126 s⁻¹
koff [2]: 0.000279 s⁻¹
B1: human recombinant biotinylated FcγRIIb (CD32b) (receptor)
chain: TPAAPPKAVLKLEPQWINVLQEDSVTLTCRGTHSPESDSIQWFHNGNLIPTHTQPSYRFKANNNDSGEYTCQTGQTSLSDPVHLTVLSEWLVLQTPHLEFQEGETIVLRCHSWKDKPLVKVTFFQNGKSKKFSRSDPNFSIPQANHSHSGDYHCTGNIGYTLYSSKPVTITVQAP
modifications: biotin (biotinylated; site not stated)
